Experimental data: article PMC5457145 (Science Advances, 2017)
Numbering of substitutions follows the chain as printed. Names may count otherwise. Values belong to the binder of their own block, whether it stands above or below them. Ends that are not written are not given here.

Legend:
[1] = biological target: T1, His6Sumo-tagged TPR2 TPD (rice, UniProt Q5NBT9 1-209); test: AlphaScreen or HTRF
T1 sequence (looked up): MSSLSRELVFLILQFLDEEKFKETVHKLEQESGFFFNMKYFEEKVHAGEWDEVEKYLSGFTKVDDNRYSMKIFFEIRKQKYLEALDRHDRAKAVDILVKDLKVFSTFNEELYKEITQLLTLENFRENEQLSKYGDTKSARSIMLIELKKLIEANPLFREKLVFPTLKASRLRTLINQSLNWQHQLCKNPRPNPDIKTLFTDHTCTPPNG

[2] = biological target: T2, His6Sumo-TPR2 TPD N176H/Y68R (rice, UniProt Q5NBT9 1-209, N176H | Y68R); test: AlphaScreen or HTRF
T2 sequence (looked up): T1 sequence (looked up) with Y68R, N176H

[3] = biological target: T3, His6Sumo-TPR2 TPD L179A/I195A (rice, UniProt Q5NBT9 1-209, L179A | I195A); test: AlphaScreen or HTRF
T3 sequence (looked up): T1 sequence (looked up) with L179A, I195A

[4] = biological target: T4, His6Sumo-TPR2 TPD N176H/K71A (rice, UniProt Q5NBT9 1-209, N176H | K71A); test: AlphaScreen or HTRF
T4 sequence (looked up): T1 sequence (looked up) with K71A, N176H

[5] = biological target: T5, His6Sumo-TPR2 TPD N176H/Y68A (rice, UniProt Q5NBT9 1-209, N176H | Y68A); test: AlphaScreen or HTRF
T5 sequence (looked up): T1 sequence (looked up) with Y68A, N176H

[6] = biological target: T6, His6Sumo-TPR2 TPD W181A (rice, UniProt Q5NBT9 1-209, W181A); test: AlphaScreen or HTRF
T6 sequence (looked up): T1 sequence (looked up) with W181A

[7] = biological target: T7, His6Sumo-TPR2 TPD L198A (rice, UniProt Q5NBT9 1-209, L198A); test: AlphaScreen or HTRF
T7 sequence (looked up): T1 sequence (looked up) with L198A

[8] = biological target: T8, His6Sumo-TPR2 TPD L111A/L130A (rice, UniProt Q5NBT9 1-209, L111A | L130A); test: AlphaScreen or HTRF
T8 sequence (looked up): T1 sequence (looked up) with L111A, L130A

[9] = biological target: T9, His6Sumo-TPR2 TPD N176H/R67A (rice, UniProt Q5NBT9 1-209, N176H | R67A); test: AlphaScreen or HTRF
T9 sequence (looked up): T1 sequence (looked up) with R67A, N176H

[10] = biological target: T10, His6Sumo-TPR2 TPD N180A (rice, UniProt Q5NBT9 1-209, N180A); test: AlphaScreen or HTRF
T10 sequence (looked up): T1 sequence (looked up) with N180A

[11] = biological target: T1, His6Sumo-tagged TPR2 TPD; test: AlphaScreen or HTRF; remark: listed apart in the source
[12] = biological target: the molecule itself; test: crystal structure

B4: TPR2 TPD, TPR2(1–209), untagged (domain or fragment, rice, UniProt Q5NBT9 1-209, looked up)
chain: T1 sequence (looked up)
stoichiometry N [12]: 4

B5: TPR2 TPD L111A/L130A, untagged (domain or fragment, rice, UniProt Q5NBT9 1-209, looked up)
chain: T1 sequence (looked up) with L111A, L130A
binding result [12]: binds

Next, values leading:

binding result [1]: binds | binding result [2]: binds | binding result [3]: binds | binding result [4]: binds | binding result [5]: binds | binding result [6]: binds | binding result [7]: binds | binding result [8]: binds | binding result [9]: binds | binding result [10]: binds
B1: Biotinylated D53 EAR-2 peptide, D53(794–808) (peptide, UniProt Q2RBP2 794-808, looked up)
peptide: DNLIYLDLNLQDWDD
modifications: also: biotinylated, site not given here

IC50 [11]: 14.3 µM
B2: D53 EAR-2 peptide L799A (peptide, UniProt Q2RBP2 794-804, looked up)
peptide: DNLIYADLNLQ

fold increase of the strength of the interaction against wild-type EAR-2 [11]: > 3 fold
B3: D53 EAR-2 peptide Q804A (peptide, UniProt Q2RBP2 794-804, looked up)
peptide: DNLIYLDLNLA
